From the supplement of paper PMC9170038

Tested on: MS2 coat protein
Assay: apparent KD of MS2 coat protein; higher = weaker reporter binding
Conditions: Eterna round: R107
Description: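 RNA-MaP round R107: designed RNA switches with theophylline, tryptophan, arginine or FMN aptamers are transcribed on-chip within common flanks. They are titrated with SNAP-549-labelled MS2 coat protein in RNA-MaP buffer (100 mM Tris pH 7.5, 80 mM KCl, 4 mM MgCl2), without ligand or with the indicated ligand. Median apparent KD per design.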

[1] = input ligand: theophylline 20 uM
[2] = input ligand: theophylline 2 mM
[3] = input ligand: tryptophan 2.4 mM

| Sequence | apparent KD of MS2 coat protein (input ligand: arginine 13.2 mM) [nM] | apparent KD of MS2 coat protein [1] [nM] | apparent KD of MS2 coat protein [2] [nM] | apparent KD of MS2 coat protein [3] [nM] | apparent KD of MS2 coat protein (input ligand: none) [nM] |
| --- | --- | --- | --- | --- | --- |
| AAUGUAUGGCACAUGAGGAUCACCCAUGUGCGAGGACCGGUACGGCCGCCACUCGGUCGUGGGUUCUUAUUACUAUACAUUAAUG [XTryp A #14] | 11.4 | 12.8 | 11.6 | – | – |
| AAUGUAUUCCACAUGAGGAUCACCCAUGUGCGAGGACCGGUACGGCCGCCACUCGGUGUUGGGAUCAGUUCUGAAUACAUUAAUG [XTryp A #24] | 19.1 | 19.2 | 20.5 | – | – |
| ACAAGUCCUCAUGAUACCAGCGAUGAGACAAAGUCUCAACAUGAGGAUCACCCAUGUACUCGCCCUUGGCAGCAUACGGUUUUUG [Onedxequla] | 139 | 373 | – | 573 | – |
| ACACGAAGCUGAAGGAGCGUGGUAUAAUUUUUUACAUGAGGAUCACCCAUGUCUCAUUUUUCACAGGUAGGUCGCAGAUGCGUGA [JR_SSArginiB_Sub015] | 54.5 | 81.6 | 117 | 78.7 | 71.5 |
| ACAUGAGGAUCACCCAUGUAAGAUGCAGAAGGAGCGGGAAAUAACCCAGGUAGGUCGCUGCGGUUUGGAUUAUUGUGUUCGUGAA [#08 Exclusion - Arginine A] | 11.6 | 18.8 | 13.8 | 12.5 | 12.1 |
| ACAUGAGGAUCACCCAUGUACAUCACCCGACGAGGACCGGUACGGCCGCCACUCGGGUAUAUAUUUACAUCGGGUGAUUUUACGU [#23 Tryptophan A Same State] | 21.9 | 81.2 | 115 | – | – |
| ACAUGAGGAUCACCCAUGUACAUGAGGGAAGGAGCGGUACAUGAGCCAGGUAGGUCGCCCAACAGCAAAUGGCAUGUACAACGGA [hhnmullin] | 33.8 | 74.3 | 60.5 | 63.5 | 78.4 |
| ACAUGAGGAUCACCCAUGUAGAAAGAUCCUCGAGGACCGGUACGGCCGCCACUCGAGUGGCAGUGUGUGCAGAAAAUGCGCGCGC | 28.6 | 92.2 | 81.4 | 14.2 | 50.9 |
| ACAUGAGGAUCACCCAUGUCACGGCACGAUACCAGCUGAUGCGGUGGCCCUUGGCAGCGUGACGUUUGGUCCCGCGGAUGACACG [qsmullin] | 86.4 | 280 | – | 240 | – |
| ACAUGAGGAUCACCCAUGUCUGCCACUGAUACCAGCGGAUGCCAACGCCCUUGGCAGCAGAACAUGAGGAUCACCCAUGUAGGCA [Same State Theophylline A GF25] | 99.5 | 303 | – | 297 | – |
| ACAUGAGGAUCACCCAUGUGAUGGCACGAUACCAGCUGAUCCCGUGGCCCUUGGCAGCGUCCGGUGUGGUCCGGCGGGUGGGACG [qqwmullin] | 30.1 | 97.8 | 25.9 | 21.2 | 21.5 |
| ACAUGAGGAUCACCCAUGUGCCGUCUUGAUACCAGACCCGAAGUAGUCCCUUGGCAGCAACUACGUGACGGUCGCCCAUGUGUAG [rremullin] | 14 | 20.4 | – | 14.7 | – |
| ACAUGAGGAUCACCCAUGUGCCGUCUUGAUACCAGACCCGAAGUAGUCCCUUGGCAGCAACUACGUGAGGGUCGCCCAUGUGUAG [5kullin] | 16.1 | 22.2 | 16.7 | 13.7 | 14.5 |
| ACAUGAGGAUCACCCAUGUGGCGUCUUGAUACCAGACCCGCACUAGUCCCUUGGCAGCAACUACGUGAGGGUCGCCCAUGUGUAG [zxdullin] | 32.4 | 50.8 | – | 34.4 | – |
| ACAUGAGGAUCACCCAUGUUUGUUGUUCCUCGAGGACCGGUACGGCCGCCACUCGAACGAGUGGCGCGCGAGUGCGCACUCGCGC [aOa] | 12.7 | 18 | 13.4 | 11.7 | 11.9 |
| ACAUUUAACUGAAGGAGCGUGAUAAACAUGAGGAUCACCCAUGUACCAAAGAUUUUCAGUUCACAGGUAGGUCGCAGACUAAUGA [JR_ExcArginiB_Sub016] | 10.6 | 13.8 | 11.5 | 10.8 | 11.1 |
| ACGUAAUGCAGAAGGAGCGUCUGAUUUUAACAUGAGGAUCACCCAUGUAAUAUUUAUGGUAGACAGGUAGGUCGCUGAAGUACGA [JR_ExcArginiB_Sub002] | 14.8 | 16.8 | 15.2 | 14.8 | – |
| ACGUAGAAGUCGGCCGCCACUGAUUUCAUGUUCAACAUGAGGAUCACCCAUGUACCUUAUGUUAACAGGACCGGGACGUAUACGA [JR_SSTryptoB_Sub001] | 228 | 303 | 442 | – | – |
